# Source: patent publication US20150087577A1 (POLYPHOR, published 2015)
# *1 amine or outer side, *2 acyl side, *3 side chain or, on linkers, in order; H or OH if unused. Bridges are numbered along the chain shown (N, C = ends). [ ]: non-standard residue; d: D form. IPegDab = L-2-amino-4{2-[2-(2-methoxy-ethoxy)-ethoxy]-acetylamino}-butyric acid, COCCOCCOCC(=O)NCC[C@H](N[*:1])C(=O)[*:2]; N(2-Aminoethyl)Gly = O=C(CN(CCN[*:3])[*:1])[*:2]; 2Nal = N[C@@H](Cc1ccc2ccccc2c1)C(=O)O; Cit = NC(=O)NCCC[C@H](N)C(=O)O; Dab = NCC[C@H](N)C(=O)O
# B1: Example 148 (peptide)
# peptide: cyclo(YRYCRG[dP]RRYCYQK[dP]P)
# modifications: disulfide 4-11
# SMILES: N=C(N)NCCC[C@@H]1NC(=O)[C@@H]2CSSC[C@H](NC(=O)[C@H](Cc3ccc(O)cc3)NC(=O)[C@H](CCCNC(=N)N)NC(=O)[C@H](CCCNC(=N)N)NC(=O)[C@H]3CCCN3C(=O)CNC1=O)C(=O)N[C@@H](Cc1ccc(O)cc1)C(=O)N[C@@H](CCC(N)=O)C(=O)N[C@@H](CCCCN)C(=O)N1CCC[C@@H]1C(=O)N1CCC[C@H]1C(=O)N[C@@H](Cc1ccc(O)cc1)C(=O)N[C@@H](CCCNC(=N)N)C(=O)N[C@@H](Cc1ccc(O)cc1)C(=O)N2
# B2: Example 138 (peptide)
# peptide: cyclo(YR[Cit]C[N(2-Aminoethyl)Gly]G[dP]RR[2Nal]CY[Cit]K[dP]P)
# modifications: disulfide 4-11
# SMILES: N=C(N)NCCC[C@@H]1NC(=O)[C@H](CCCNC(=N)N)NC(=O)[C@H]2CCCN2C(=O)CNC(=O)CN(CCN)C(=O)[C@@H]2CSSC[C@H](NC(=O)[C@H](Cc3ccc4ccccc4c3)NC1=O)C(=O)N[C@@H](Cc1ccc(O)cc1)C(=O)N[C@@H](CCCNC(N)=O)C(=O)N[C@@H](CCCCN)C(=O)N1CCC[C@@H]1C(=O)N1CCC[C@H]1C(=O)N[C@@H](Cc1ccc(O)cc1)C(=O)N[C@@H](CCCNC(=N)N)C(=O)N[C@@H](CCCNC(N)=O)C(=O)N2
# B3: Example 135 (peptide)
# peptide: cyclo(YR[Cit]CRG[dP][Dab]R[2Nal]CY[Cit]K[dP]P)
# modifications: disulfide 4-11
# SMILES: N=C(N)NCCC[C@@H]1NC(=O)[C@@H]2CSSC[C@H](NC(=O)[C@H](Cc3ccc4ccccc4c3)NC(=O)[C@H](CCCNC(=N)N)NC(=O)[C@H](CCN)NC(=O)[C@H]3CCCN3C(=O)CNC1=O)C(=O)N[C@@H](Cc1ccc(O)cc1)C(=O)N[C@@H](CCCNC(N)=O)C(=O)N[C@@H](CCCCN)C(=O)N1CCC[C@@H]1C(=O)N1CCC[C@H]1C(=O)N[C@@H](Cc1ccc(O)cc1)C(=O)N[C@@H](CCCNC(=N)N)C(=O)N[C@@H](CCCNC(N)=O)C(=O)N2
# B4: Example 142 (peptide)
# peptide: cyclo(YR[Cit]CRG[dP][IPegDab]RWCY[Cit]K[dP]P)
# modifications: disulfide 4-11
# SMILES: COCCOCCOCC(=O)NCC[C@@H]1NC(=O)[C@H]2CCCN2C(=O)CNC(=O)[C@H](CCCNC(=N)N)NC(=O)[C@@H]2CSSC[C@H](NC(=O)[C@H](Cc3c[nH]c4ccccc34)NC(=O)[C@H](CCCNC(=N)N)NC1=O)C(=O)N[C@@H](Cc1ccc(O)cc1)C(=O)N[C@@H](CCCNC(N)=O)C(=O)N[C@@H](CCCCN)C(=O)N1CCC[C@@H]1C(=O)N1CCC[C@H]1C(=O)N[C@@H](Cc1ccc(O)cc1)C(=O)N[C@@H](CCCNC(=N)N)C(=O)N[C@@H](CCCNC(N)=O)C(=O)N2
# B5: Example 146 (peptide)
# peptide: cyclo(YRTCRG[dP]RRYCY[Cit]K[dP]P)
# modifications: disulfide 4-11
# SMILES: C[C@@H](O)[C@@H]1NC(=O)[C@H](CCCNC(=N)N)NC(=O)[C@H](Cc2ccc(O)cc2)NC(=O)[C@@H]2CCCN2C(=O)[C@H]2CCCN2C(=O)[C@H](CCCCN)NC(=O)[C@H](CCCNC(N)=O)NC(=O)[C@H](Cc2ccc(O)cc2)NC(=O)[C@@H]2CSSC[C@H](NC1=O)C(=O)N[C@@H](CCCNC(=N)N)C(=O)NCC(=O)N1CCC[C@@H]1C(=O)N[C@@H](CCCNC(=N)N)C(=O)N[C@@H](CCCNC(=N)N)C(=O)N[C@@H](Cc1ccc(O)cc1)C(=O)N2
# B6: Example 1 (peptide)
# peptide: cyclo(YR[Cit]VR[dR]R[2Nal]FY[Cit]K[dP]P)
# SMILES: CC(C)[C@@H]1NC(=O)[C@H](CCCNC(N)=O)NC(=O)[C@H](CCCNC(=N)N)NC(=O)[C@H](Cc2ccc(O)cc2)NC(=O)[C@@H]2CCCN2C(=O)[C@H]2CCCN2C(=O)[C@H](CCCCN)NC(=O)[C@H](CCCNC(N)=O)NC(=O)[C@H](Cc2ccc(O)cc2)NC(=O)[C@H](Cc2ccccc2)NC(=O)[C@H](Cc2ccc3ccccc3c2)NC(=O)[C@H](CCCNC(=N)N)NC(=O)[C@@H](CCCNC(=N)N)NC(=O)[C@H](CCCNC(=N)N)NC1=O
# B7: Example 25 (peptide)
# peptide: cyclo(YR[Cit]VR[Cit][dP]RR[2Nal]VY[Cit]K[dP]P)
# SMILES: CC(C)[C@@H]1NC(=O)[C@H](Cc2ccc3ccccc3c2)NC(=O)[C@H](CCCNC(=N)N)NC(=O)[C@H](CCCNC(=N)N)NC(=O)[C@H]2CCCN2C(=O)[C@H](CCCNC(N)=O)NC(=O)[C@H](CCCNC(=N)N)NC(=O)[C@H](C(C)C)NC(=O)[C@H](CCCNC(N)=O)NC(=O)[C@H](CCCNC(=N)N)NC(=O)[C@H](Cc2ccc(O)cc2)NC(=O)[C@@H]2CCCN2C(=O)[C@H]2CCCN2C(=O)[C@H](CCCCN)NC(=O)[C@H](CCCNC(N)=O)NC(=O)[C@H](Cc2ccc(O)cc2)NC1=O
# B8: Example 137 (peptide)
# peptide: cyclo(YR[Cit]CRG[dP]HRWCY[Cit]K[dP]P)
# modifications: disulfide 4-11
# SMILES: N=C(N)NCCC[C@@H]1NC(=O)[C@@H]2CSSC[C@H](NC(=O)[C@H](Cc3c[nH]c4ccccc34)NC(=O)[C@H](CCCNC(=N)N)NC(=O)[C@H](Cc3c[nH]cn3)NC(=O)[C@H]3CCCN3C(=O)CNC1=O)C(=O)N[C@@H](Cc1ccc(O)cc1)C(=O)N[C@@H](CCCNC(N)=O)C(=O)N[C@@H](CCCCN)C(=O)N1CCC[C@@H]1C(=O)N1CCC[C@H]1C(=O)N[C@@H](Cc1ccc(O)cc1)C(=O)N[C@@H](CCCNC(=N)N)C(=O)N[C@@H](CCCNC(N)=O)C(=O)N2
# B9: Example 136 (peptide)
# peptide: cyclo(YR[Cit]CRG[dP][Cit]RWCY[Cit]K[dP]P)
# modifications: disulfide 4-11
# SMILES: N=C(N)NCCC[C@@H]1NC(=O)[C@@H]2CSSC[C@H](NC(=O)[C@H](Cc3c[nH]c4ccccc34)NC(=O)[C@H](CCCNC(=N)N)NC(=O)[C@H](CCCNC(N)=O)NC(=O)[C@H]3CCCN3C(=O)CNC1=O)C(=O)N[C@@H](Cc1ccc(O)cc1)C(=O)N[C@@H](CCCNC(N)=O)C(=O)N[C@@H](CCCCN)C(=O)N1CCC[C@@H]1C(=O)N1CCC[C@H]1C(=O)N[C@@H](Cc1ccc(O)cc1)C(=O)N[C@@H](CCCNC(=N)N)C(=O)N[C@@H](CCCNC(N)=O)C(=O)N2
# B10: Example 143 (peptide)
# peptide: cyclo(YR[Cit]CRA[dP]RRWCY[Cit]K[dP]P)
# modifications: disulfide 4-11
# SMILES: C[C@@H]1NC(=O)[C@H](CCCNC(=N)N)NC(=O)[C@@H]2CSSC[C@H](NC(=O)[C@H](Cc3c[nH]c4ccccc34)NC(=O)[C@H](CCCNC(=N)N)NC(=O)[C@H](CCCNC(=N)N)NC(=O)[C@H]3CCCN3C1=O)C(=O)N[C@@H](Cc1ccc(O)cc1)C(=O)N[C@@H](CCCNC(N)=O)C(=O)N[C@@H](CCCCN)C(=O)N1CCC[C@@H]1C(=O)N1CCC[C@H]1C(=O)N[C@@H](Cc1ccc(O)cc1)C(=O)N[C@@H](CCCNC(=N)N)C(=O)N[C@@H](CCCNC(N)=O)C(=O)N2
# B11: Example 147 (peptide)
# peptide: cyclo(YRICRG[dP]RRYCYQK[dP]P)
# modifications: disulfide 4-11
# SMILES: CC[C@H](C)[C@@H]1NC(=O)[C@H](CCCNC(=N)N)NC(=O)[C@H](Cc2ccc(O)cc2)NC(=O)[C@@H]2CCCN2C(=O)[C@H]2CCCN2C(=O)[C@H](CCCCN)NC(=O)[C@H](CCC(N)=O)NC(=O)[C@H](Cc2ccc(O)cc2)NC(=O)[C@@H]2CSSC[C@H](NC1=O)C(=O)N[C@@H](CCCNC(=N)N)C(=O)NCC(=O)N1CCC[C@@H]1C(=O)N[C@@H](CCCNC(=N)N)C(=O)N[C@@H](CCCNC(=N)N)C(=O)N[C@@H](Cc1ccc(O)cc1)C(=O)N2
# B12: Example 145 (peptide)
# peptide: cyclo(YRTCRG[dP]RRYCYQK[dP]P)
# modifications: disulfide 4-11
# SMILES: C[C@@H](O)[C@@H]1NC(=O)[C@H](CCCNC(=N)N)NC(=O)[C@H](Cc2ccc(O)cc2)NC(=O)[C@@H]2CCCN2C(=O)[C@H]2CCCN2C(=O)[C@H](CCCCN)NC(=O)[C@H](CCC(N)=O)NC(=O)[C@H](Cc2ccc(O)cc2)NC(=O)[C@@H]2CSSC[C@H](NC1=O)C(=O)N[C@@H](CCCNC(=N)N)C(=O)NCC(=O)N1CCC[C@@H]1C(=O)N[C@@H](CCCNC(=N)N)C(=O)N[C@@H](CCCNC(=N)N)C(=O)N[C@@H](Cc1ccc(O)cc1)C(=O)N2
# B13: Example 24 (peptide)
# peptide: cyclo(YR[Cit]FRFPRR[2Nal]VY[Cit]K[dP]P)
# SMILES: CC(C)[C@@H]1NC(=O)[C@H](Cc2ccc3ccccc3c2)NC(=O)[C@H](CCCNC(=N)N)NC(=O)[C@H](CCCNC(=N)N)NC(=O)[C@@H]2CCCN2C(=O)[C@H](Cc2ccccc2)NC(=O)[C@H](CCCNC(=N)N)NC(=O)[C@H](Cc2ccccc2)NC(=O)[C@H](CCCNC(N)=O)NC(=O)[C@H](CCCNC(=N)N)NC(=O)[C@H](Cc2ccc(O)cc2)NC(=O)[C@@H]2CCCN2C(=O)[C@H]2CCCN2C(=O)[C@H](CCCCN)NC(=O)[C@H](CCCNC(N)=O)NC(=O)[C@H](Cc2ccc(O)cc2)NC1=O
# B14: Example 144 (peptide)
# peptide: cyclo(LR[Cit]CRG[dP]RR[2Nal]CYQK[dP]P)
# modifications: disulfide 4-11
# SMILES: CC(C)C[C@@H]1NC(=O)[C@@H]2CCCN2C(=O)[C@H]2CCCN2C(=O)[C@H](CCCCN)NC(=O)[C@H](CCC(N)=O)NC(=O)[C@H](Cc2ccc(O)cc2)NC(=O)[C@@H]2CSSC[C@H](NC(=O)[C@H](CCCNC(N)=O)NC(=O)[C@H](CCCNC(=N)N)NC1=O)C(=O)N[C@@H](CCCNC(=N)N)C(=O)NCC(=O)N1CCC[C@@H]1C(=O)N[C@@H](CCCNC(=N)N)C(=O)N[C@@H](CCCNC(=N)N)C(=O)N[C@@H](Cc1ccc3ccccc3c1)C(=O)N2
# Target: human CXCR4 (human, UniProt P61073 1-352)
# Sequence (P61073 whole entry): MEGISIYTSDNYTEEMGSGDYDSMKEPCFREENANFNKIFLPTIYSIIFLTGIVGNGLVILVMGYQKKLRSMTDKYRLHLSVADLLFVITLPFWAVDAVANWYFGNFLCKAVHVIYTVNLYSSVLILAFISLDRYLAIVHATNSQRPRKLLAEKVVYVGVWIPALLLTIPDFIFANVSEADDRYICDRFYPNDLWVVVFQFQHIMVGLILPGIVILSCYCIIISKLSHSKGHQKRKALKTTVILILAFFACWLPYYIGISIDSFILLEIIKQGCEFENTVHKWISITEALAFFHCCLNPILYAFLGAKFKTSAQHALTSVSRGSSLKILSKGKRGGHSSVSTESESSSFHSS
# Test: cell-based or functional assay
Binder,IC50 (nM) Ca2+ assay (method 2) [nM],IC50 (nM) Ca2+ assay (method 1) [nM]
B1,0.65,
B2,63,
B3,4.7,
B4,96.9,
B5,0.24,
B6,,2280
B7,,1000
B8,1.28,
B9,4.1,
B10,0.9,
B11,0.17,
B12,0.38,
B13,,850
B14,0.18,
